B1: PTPRJ transmembrane domain construct for the AraTM assay, wild type (five extracellular residues, putative TMD, 20 cytoplasmic juxtamembrane residues) [human] / FLT3 transmembrane domain construct for the AraTM assay (five … (parent)
chain 1: QDPGVICGAVFGCIFGALVIVTVGGFIFWRKKRKDAKNNEVSFSQIKP
chain 2: QDNISFYATIGVCLLFIVVLTLLICHKYKKQFRYESQLQMVQVTG

Variants of: B1
Assay: DN-AraTM assay
Conditions: with FLT3 transmembrane domain construct for the AraTM assay (five extracellular residues, putative TMD, 20 cytoplasmic juxtamembrane residues); FLT3-AraC co-expressed with PTPRJ TMD-AraC* competitor; n=9; parent: 0.8; read off a plot

response (normalized GFP signal (FLT3 alone = 1))	Variant
0.5	chain 1 QDPGVICLAVFGCIFGALVIVTVGGFIFWRKKRKDAKNNEVSFSQIKP [chain 1 G8L]
0.56	chain 1 QDPGVICGAVFLCIFGALVIVTVGGFIFWRKKRKDAKNNEVSFSQIKP [chain 1 G12L]
0.55	chain 1 QDPGVICGAVFGCIFLALVIVTVGGFIFWRKKRKDAKNNEVSFSQIKP [chain 1 G16L]

From article PMC9701752
